Experimental data from IntAct's records for PubMed 16996049.

Molecular target: par6_caeel par-6 (UniProt Q9NAN2)
Sequence (Q9NAN2 whole entry): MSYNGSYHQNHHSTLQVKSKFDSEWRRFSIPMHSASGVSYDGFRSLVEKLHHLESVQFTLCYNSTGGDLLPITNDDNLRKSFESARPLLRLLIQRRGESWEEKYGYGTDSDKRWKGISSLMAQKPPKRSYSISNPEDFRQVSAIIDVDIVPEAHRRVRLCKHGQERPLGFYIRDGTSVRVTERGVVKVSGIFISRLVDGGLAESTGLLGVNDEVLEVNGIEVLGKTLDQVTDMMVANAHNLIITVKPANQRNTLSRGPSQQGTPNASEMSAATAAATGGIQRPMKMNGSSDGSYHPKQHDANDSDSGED

Chain of Cell division control protein 42 homolog (Caenorhabditis elegans), Q05062 T17N (Q05062 whole entry T17N): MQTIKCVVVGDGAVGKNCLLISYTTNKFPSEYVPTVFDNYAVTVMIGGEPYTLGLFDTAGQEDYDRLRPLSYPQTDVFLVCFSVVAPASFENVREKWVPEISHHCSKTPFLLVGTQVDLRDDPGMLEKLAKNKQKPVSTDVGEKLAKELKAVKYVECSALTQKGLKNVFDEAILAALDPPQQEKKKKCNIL

Cell division control protein 42 homolog (Caenorhabditis elegans), Q05062 T17N
effect of a mutation on the interaction: disrupting interaction
